B1: Protein E7 (Human papillomavirus type 16), P03129 (parent)
chain: MHGDTPTLHEYMLDLQPETTDLYCYEQLNDSSEEEDEIDGPAGQAEPDRAHYNIVTFCCKCDSTLRLCVQSTHVDIRTLEDLLMGTLGIVCPICSQKP
partner: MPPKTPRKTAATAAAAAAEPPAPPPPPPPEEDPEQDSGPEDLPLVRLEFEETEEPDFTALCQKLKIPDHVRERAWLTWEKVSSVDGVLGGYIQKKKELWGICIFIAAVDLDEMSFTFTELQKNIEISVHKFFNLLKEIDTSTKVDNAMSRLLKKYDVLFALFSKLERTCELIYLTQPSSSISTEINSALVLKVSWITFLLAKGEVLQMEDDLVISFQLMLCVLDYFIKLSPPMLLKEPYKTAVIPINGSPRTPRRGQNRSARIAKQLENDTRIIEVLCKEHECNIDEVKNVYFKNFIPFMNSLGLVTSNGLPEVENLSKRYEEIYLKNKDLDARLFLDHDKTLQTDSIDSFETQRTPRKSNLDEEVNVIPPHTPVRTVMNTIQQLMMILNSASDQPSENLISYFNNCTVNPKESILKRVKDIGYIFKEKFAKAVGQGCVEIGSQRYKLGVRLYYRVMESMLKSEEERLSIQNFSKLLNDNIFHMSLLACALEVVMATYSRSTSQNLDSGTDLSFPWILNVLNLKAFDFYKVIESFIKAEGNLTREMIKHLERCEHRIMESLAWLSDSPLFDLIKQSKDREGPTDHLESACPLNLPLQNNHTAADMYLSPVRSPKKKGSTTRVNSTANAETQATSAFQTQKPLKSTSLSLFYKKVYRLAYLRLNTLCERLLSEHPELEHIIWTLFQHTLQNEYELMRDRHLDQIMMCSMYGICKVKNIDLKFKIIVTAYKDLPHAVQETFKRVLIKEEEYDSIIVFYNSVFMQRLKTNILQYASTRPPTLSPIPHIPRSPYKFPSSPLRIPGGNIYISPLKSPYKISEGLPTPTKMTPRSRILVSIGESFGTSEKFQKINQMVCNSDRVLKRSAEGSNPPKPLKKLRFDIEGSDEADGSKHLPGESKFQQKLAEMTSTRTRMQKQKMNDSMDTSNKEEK
B2: Protein E7 (Human papillomavirus type 16), P03129 (parent)
chain: B1 chain

Variants of: B1
Settings: with rb_human RB1, P06400

| Variant | effect of a mutation on the interaction |
| --- | --- |
| L67R | decreasing interaction |

Variants of: B2
Settings: with chd4_human CHD4, Q14839
Chain of chd4_human CHD4, Q14839 (Q14839 whole entry): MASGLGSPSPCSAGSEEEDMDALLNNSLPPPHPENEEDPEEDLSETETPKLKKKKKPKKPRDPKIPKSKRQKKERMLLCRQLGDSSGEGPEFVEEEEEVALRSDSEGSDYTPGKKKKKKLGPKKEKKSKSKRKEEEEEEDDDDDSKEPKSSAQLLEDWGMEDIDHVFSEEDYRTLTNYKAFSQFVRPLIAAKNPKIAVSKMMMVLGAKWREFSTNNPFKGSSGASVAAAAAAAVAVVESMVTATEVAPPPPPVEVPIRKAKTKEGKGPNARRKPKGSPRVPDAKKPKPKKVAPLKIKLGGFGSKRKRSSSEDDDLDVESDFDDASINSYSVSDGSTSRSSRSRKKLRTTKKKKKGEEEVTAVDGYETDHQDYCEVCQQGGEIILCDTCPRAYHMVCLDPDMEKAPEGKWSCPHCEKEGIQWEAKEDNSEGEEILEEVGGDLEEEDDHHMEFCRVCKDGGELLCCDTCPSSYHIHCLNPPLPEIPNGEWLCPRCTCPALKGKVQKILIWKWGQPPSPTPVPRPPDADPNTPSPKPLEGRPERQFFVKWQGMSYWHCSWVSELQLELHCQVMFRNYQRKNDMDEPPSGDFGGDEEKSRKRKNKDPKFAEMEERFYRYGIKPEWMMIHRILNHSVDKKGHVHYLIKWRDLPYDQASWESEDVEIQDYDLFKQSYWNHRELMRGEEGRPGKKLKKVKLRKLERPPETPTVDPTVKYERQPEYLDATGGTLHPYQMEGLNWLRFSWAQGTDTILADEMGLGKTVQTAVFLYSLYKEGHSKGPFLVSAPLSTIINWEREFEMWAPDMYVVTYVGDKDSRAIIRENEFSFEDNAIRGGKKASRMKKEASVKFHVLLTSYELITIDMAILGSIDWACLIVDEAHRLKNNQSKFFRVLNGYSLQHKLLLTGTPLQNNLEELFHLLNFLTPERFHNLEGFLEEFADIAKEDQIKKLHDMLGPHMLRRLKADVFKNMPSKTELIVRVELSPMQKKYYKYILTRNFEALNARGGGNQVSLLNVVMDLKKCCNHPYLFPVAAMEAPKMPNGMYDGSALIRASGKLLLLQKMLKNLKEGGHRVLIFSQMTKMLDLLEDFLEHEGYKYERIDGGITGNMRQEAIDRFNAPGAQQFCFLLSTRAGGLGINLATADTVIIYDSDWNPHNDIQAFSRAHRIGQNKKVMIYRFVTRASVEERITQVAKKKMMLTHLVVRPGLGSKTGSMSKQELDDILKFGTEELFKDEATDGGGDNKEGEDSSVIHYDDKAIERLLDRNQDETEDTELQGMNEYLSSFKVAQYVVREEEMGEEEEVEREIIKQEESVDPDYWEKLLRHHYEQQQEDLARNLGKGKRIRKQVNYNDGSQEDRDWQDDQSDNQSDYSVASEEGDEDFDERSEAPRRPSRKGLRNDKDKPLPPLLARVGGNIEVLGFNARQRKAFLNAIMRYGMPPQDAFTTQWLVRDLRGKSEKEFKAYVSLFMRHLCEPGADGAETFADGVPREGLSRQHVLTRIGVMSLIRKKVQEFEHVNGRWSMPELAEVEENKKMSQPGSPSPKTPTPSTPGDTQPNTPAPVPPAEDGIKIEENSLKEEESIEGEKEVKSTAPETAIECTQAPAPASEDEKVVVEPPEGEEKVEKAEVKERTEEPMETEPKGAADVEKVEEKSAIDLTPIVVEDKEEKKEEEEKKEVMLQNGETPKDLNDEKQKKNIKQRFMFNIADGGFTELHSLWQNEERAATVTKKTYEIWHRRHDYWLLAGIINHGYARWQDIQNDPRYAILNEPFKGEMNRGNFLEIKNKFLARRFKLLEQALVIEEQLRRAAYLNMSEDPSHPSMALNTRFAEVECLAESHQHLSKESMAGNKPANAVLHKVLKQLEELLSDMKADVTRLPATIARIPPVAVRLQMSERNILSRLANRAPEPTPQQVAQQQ

| Variant | effect of a mutation on the interaction |
| --- | --- |
| L67R | decreasing interaction |

— IntAct's records for PubMed 10228159
